# Experimental data from the supplement of paper PMC10126150.
# ± gives the standard deviation of the averaged measurements.
# Test system: ATP
# Test: switch fluorescence ratio, 500 uM ATP over buffer (Cy3 cluster intensity, sum of 5 cycles each) (fold (ratio)); higher = stronger signal-on switching upon ATP binding; sequences stand for … in TCGTCGGCAGCGTCAGATGTGTATAAGAGACAGTTTTTTTTTTTTTTTTTTTTTTTTT…TC
# Conditions: aptamer strand: ATP DNA aptamer (quencher-CACCTGGGGGAGTATTGCGGAGGAAGG + anchor), 100 nM annealed; ATP concentration: 500 uM
# In short: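 Five buffer/ATP imaging cycles were run on Cy3-labelled switching-strand clusters on a modified Illumina MiSeq flow-cell, with NaOH stripping and re-annealing between cycles. In each cycle, clusters annealed to 100 nM quencher-labelled ATP aptamer were imaged in selection buffer, then after 15 min with 500 uM ATP at 22 °C. Per cluster, the fluorescence ratio is summed target-cycle over summed buffer-cycle Cy3 intensity, averaged per switch-domain sequence. Only clusters within 100-1000 RFU were kept.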
# 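Note: ATP exposure 15 min at 22 °C before imaging.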
row,Sequence,switch fluorescence ratio
1,AACTGGTTG,0.9804 ± 0.009
2,AACTTGGGGA,0.9657 ± 0.0061
3,AACTTGTCGA,0.886 ± 0.047
4,AACTTTGACC,1.034 ± 0.0014
5,AACTTTGTTT,0.9832 ± 0.0047
6,AAGAAAAAGG,0.993 ± 0.036
7,AAGAAACACA,1.02 ± 0.038
8,AAGAAACTTC,1.007 ± 0.0024
9,AAGAAATCTC,1.04 ± 0.11
10,AAGAAATTAC,1.06 ± 0.028
11,AAGAACTATA,1.09 ± 0.023
12,AAGAAGATCA,0.975 ± 0.016
13,AAGAAGGCGG,0.9845 ± 0.0069
14,AAGAAGGGAT,0.953 ± 0.016
15,AAGAATATTT,1.01 ± 0.012
16,AAGACAGTGC,0.9932 ± 0.0059
17,AAGACCGGGA,1.01 ± 0.04
18,AAGACGGATT,0.9945 ± 0.0066
19,AAGACGGGCT,1.01 ± 0.037
20,AAGACTTGGG,1.05 ± 0.029
21,AAGAGACCTT,1.28 ± 0.026
22,AAGAGAGGTG,1.07 ± 0.014
23,AAGAGATATA,1.008 ± 0.0037
24,AAGAGCGAGT,1 ± 0.011
25,AAGAGCGGGA,0.989 ± 0.041

row,Sequence,switch fluorescence ratio
1,AAGAGCGGTG,0.952 ± 0.0049
2,AAGAGGAAGG,0.9709 ± 0.0027
3,AAGAGGACGA,1.01 ± 0.028
4,AAGAGGAGCG,0.9668 ± 0.0078
5,AAGAGGCGCT,0.995 ± 0.05
6,AAGAGGCGGG,1 ± 0.019
7,AAGAGGGATT,0.983 ± 0.03
8,AAGAGGGCAT,1.01 ± 0.022
9,AAGAGGGGGG,0.999 ± 0.053
10,AAGAGGTGTT,1.04 ± 0.071
11,AAGAGTTGCC,1.07 ± 0.12
12,AAGATAACGG,1.07 ± 0.048
13,AAGATAATAG,0.993 ± 0.024
14,AAGATAGAAA,1.01 ± 0.013
15,AAGATATGAT,0.989 ± 0.032
16,AAGATCATAA,0.994 ± 0.019
17,AAGATGGTCA,0.993 ± 0.036
18,AAGATGTTGG,1.01 ± 0.04
19,AAGATTGGTG,0.991 ± 0.041
20,AAGATTGTTT,0.986 ± 0.033
21,AAGCAGCCGG,0.99 ± 0.046
22,AAGCAGCTGT,1.01 ± 0.034
23,AAGCAGTAGC,1.05 ± 0.0043
24,AAGCATCATT,1.0176 ± 0.00039
25,AAGCATGCTC,1.09 ± 0.03

row,Sequence,switch fluorescence ratio
1,AAGCCCGGGG,1.02 ± 0.025
2,AAGCCCTAGC,0.976 ± 0.036
3,AAGCCGTGTG,0.988 ± 0.042
4,AAGCCTTAAA,1.06 ± 0.011
5,AAGCGAGGTC,1.05 ± 0.021
6,AAGCGCCCGG,1.05 ± 0.04
7,AAGCGGAGGG,1.02 ± 0.062
8,AAGCGGGGAC,1.07 ± 0.013
9,AAGCGGGTTT,0.96 ± 0.03
10,AAGCGTGGGA,1.02 ± 0.039
11,AAGCGTGGGG,1.02 ± 0.025
12,AAGCGTTGTG,0.9984 ± 0.008
13,AAGCTCCTCT,1.03 ± 0.032
14,AAGCTGAGAA,1.016 ± 0.0071
15,AAGCTTCGGG,1.06 ± 0.029
16,AAGCTTTGTG,0.9786 ± 0.0076
17,AAGGAAGGGG,1.14 ± 0.2
18,AAGGAAGTGG,0.99 ± 0.022
19,AAGGAATAGG,0.98 ± 0.016
20,AAGGACAGGA,1.03 ± 0.026
21,AAGGACGCCT,1.03 ± 0.0041
22,AAGGAGACTA,1.02 ± 0.05
23,AAGGAGAGTG,0.991 ± 0.028
24,AAGGAGGGAT,1 ± 0.036
25,AAGGAGTTGC,0.9733 ± 0.0062

row,Sequence,switch fluorescence ratio
1,AAGGATAGAT,0.985 ± 0.025
2,AAGGATAGGC,1 ± 0.013
3,AAGGATGGGG,0.98 ± 0.022
4,AAGGATGTAT,0.969 ± 0.036
5,AAGGATTATG,1 ± 0.07
6,AAGGATTATT,0.97 ± 0.024
7,AAGGCAGGCG,0.977 ± 0.096
8,AAGGCATCAG,0.9915 ± 0.0045
9,AAGGCGAGGT,0.994 ± 0.022
10,AAGGCGCGTG,1.01 ± 0.045
11,AAGGCGTGAG,1.02 ± 0.016
12,AAGGCTAGGA,1 ± 0.036
13,AAGGCTGATG,0.983 ± 0.017
14,AAGGCTGTGT,1.001 ± 0.0095
15,AAGGCTTGAT,0.9998 ± 0.0081
16,AAGGCTTTTT,0.9935 ± 0.0077
17,AAGGGAACAA,0.999 ± 0.048
18,AAGGGAAGTG,0.982 ± 0.069
19,AAGGGAATTT,1.17 ± 0.36
20,AAGGGAGGCG,1.14 ± 0.2
21,AAGGGAGGGG,0.987 ± 0.028
22,AAGGGAGGTT,1 ± 0.027
23,AAGGGATGCT,1 ± 0.011
24,AAGGGCCGGG,0.967 ± 0.029
25,AAGGGCCTGC,0.9723 ± 0.0039
